{
  "source": "the DeepSol protein solubility set",
  "data": [
    {"experiment": "soluble on expression in E. coli; label from the status in PepcDB or PDB records", "values": [
      {"sequence": "MAIVPRPITKFKRACLRIKLARCQKTPLSNFARSDLRSFSVFRFNLSVLQLVSSKIVKLDIMKQAAITSALTQNKMDPINGNLTSTAPVEPLSLTAAEQVGGAFCHQFYITVSENRKAITKFYGHESKFYLDDQVVTGSQEIVKLYNHLPETTHFKIQSIKGYPTPHKQGVIINVIGTVNLRPFLQSFLLGQQGQKKYYVESDAFQYIDKFFVANTEKEKTTSSTGHNGHASGANGKDSKSSKTEQPKEQSKPAPPKQQTPKKAEDRIVKQDTPKSVEKEVAKTPQKPQLAQQPPQQRAPVPEPVQEQPKVQKTWANLVGGGGKSQPPQQQSYGQGQQIHQQTQMHHMQPSMHQQQQGSHAPLYQQQRQSHPANELRQAQESSDANLNERKIYLGGITREIVPSNTAQAESEIKQVFYKYGEIEEVRMPRKVLDSPNDTSKHAFAFITMRNKAGVKAIFEAATKDEQGVWKLPLKLDAFGFDGHAQISEQRDQPQGGGFRGGRGGFQPRGGQFFRRGGSGGAPRGGMRSGFQNAGQN", "soluble on expression in E. coli": "not soluble"},
      {"sequence": "MAGVKYPGQDPVDLDIYQSSHMVDYQPYRKHKYSRVTPQEQAKLDAQLRDKEFYRPIPNPNPKLTDGYPAFKRPHMTAKDLGLPGFFPSQEHEATREDERKFTSTCHFTYPASHDLHLAQGDPNQVLQSADFPCLVDPKHQPAAEMAKGYLLLPGCPCLHCHIVKVPILNRWGPLMPFYQ", "soluble on expression in E. coli": "not soluble"},
      {"sequence": "SENLPAVTTEEPTPMGRGPVGPSGGGSTRDQVRTVVMRPSVSWEKAGPEEAKAPVRGGATVPAESLERPGPSSCFSRDASVITKLAKNEAGAFEPPCSETVPETVRWVWPWNP", "soluble on expression in E. coli": "soluble"},
      {"sequence": "MSLEYQWGFANISMNYLDWTRSTTHKSGDSSHKDDFAYIELEGGAGYSWGEMYGFFDLENPFNSKTAQPGDNQRYTFKTTGRYYLGDSGFNLYGHIYGTYSLPSAEGNDYSNFHEVNTLYGIGYNATVAGVWMKPFVALHYVDQTYYSGNNGYVVGWVAGYDFTAFDENFSITNWNELEFNRAERYAAGNGGRNGVNGALALWWTPIKQFTTGIQYRYAYNKLGEDFLQDGIVYSIKYNFEGHHHHHH", "soluble on expression in E. coli": "not soluble"},
      {"sequence": "MAAAALREQLNALLSSMFASGLVDEQFQQLQMLQEDGGTPGFVAEVVTLFCDDADRIISELAALLDQPIVDFDKVDAYVHQLKGSSASVGAQKVKFTCMQFRQLCQDKNRDGCIMALAVVRNEFYDLRNKFQTMLQLEQQIQAQQ", "soluble on expression in E. coli": "soluble"},
      {"sequence": "MGSDKIHHHHHHMIGLNCKPLYIENAENQLYNPTLNIKTTMTYLETAAQFYSEVAQTPQVGLCCVQSTPLQLPGLKIPLSMQEMNYGCGTTVHPTELGKQPTVLYVGVGGGLEALQFAYFSRRPGAVIAVDPVAAMREAAARNLEMALTDNPWFESSFVEIREGDAFNLPVADGSVDIVAQNCLFNIFEPEDLTRALKEAYRVLKCGGRLQMSDPIATSPIPAHLQQDERLRAMCLSGALTYEEYTQRIIDAGFGQIEIRARRPYRLLDSQTYNLETHLLLESLDSVSFKVPIPEDGACIFTGKTAIYAGCEDFFDDKAGHILQRGIPATVCDKTAAKLATVKPKEVIITDSTWHYNGGGCC", "soluble on expression in E. coli": "not soluble"},
      {"sequence": "MKSTEVKGSVSDATDFLVPLPPKSVNEKILNPAILTLFIPQIKAVSSIRERIYLLRIKWVISWDTPLTVYSVKLDDNRYIARYYASQKIPLFVVSFGFDFYIMSEGTGSRIKMKEWYKGPFKQLAKGEIEKHLKKAKEVLPEFLIKILEHHHHHH", "soluble on expression in E. coli": "soluble"},
      {"sequence": "MVAESNSAVAPTANVATSPAHEHFVRVNGGHFELQGKPYVITGVNMWYAAYLGAPNEVGDRDRLAKELDNLKAIGVNNLRVLAVSEKSEINSAVKPAVTNGFGNYDETLLQGLDYLLVELAKRDMTVVLYFNNFWQWSGGMTQYMAWIEGEPVQDPNVTNEWEAFMAKSASFYRSEKAQQEYRKTLEKIITRVNSINGKAYVDDATIMSWQLANEPRPGNSQTTAEEKQIYIDWVHAAAAYIKTLDAHHLVSSGSEGEMGSVNDMQVFIDAHATPDIDYLTYHMWIRNWSWFDKTKPAETWPSAWEKAQNYMRAHIDVAKQLNKPLVLEEFGLDRDMGSYAMDSTTEYRDNYFRGVFELMLASLEQGEPSAGYNIWAWNGYGRTTRANYWWQEGDDFMGDPPQEEQGMYGVFDTDTSTIAIMKEFNARFQPKLEHHHHHH", "soluble on expression in E. coli": "soluble"},
      {"sequence": "MSLGPYYINTHFLYGSEEKANKLLEFIDKEKENILKCPDRILEETMKNYQSDPIYRGLIDEMCDFIKNNIDVNEVDYISGGERRDWFFSPIIAKLLNKPHITIYKDLTTVVSSDGKTEELKELNGESVLHIADLITEASSYERAWIPAIKNNGGRIKWSVVVVDRKQGGAELLKSYDIKSFSMVDIDIGLFKRVLDMGLIDRGQFEMIEQYILDPKESMAKFLRKNEGHHHHHH", "soluble on expression in E. coli": "not soluble"},
      {"sequence": "MSLFQSDLKLIVFQHGFFGERFVANLMNYPNSCPSYGACGIDGCTQCKEGLYNFSKNIIAVFSMPDPTTMPDFIENAEDFLPKVIPEADIAVAINLHPDVLAVMPEKLKGKVKALIVPVEEPRWCSPGLAKQIREKCDELGLEFAAPKPFCNLRPSEEHPTINRMIEEMRIGYPEFEIELLEDGKAYVRISRSQPCGCAYYIGVKLRGFDFSEVKEGKMRELWNVVAEAHHSYPCTASMERDNEYNETLLHVGGYIARHAVNRALGYEGDEDIPEHIKHIVLEGGSHHHHHH", "soluble on expression in E. coli": "soluble"},
      {"sequence": "MSLVRTALTIAGSDSGGGAGIEADLKTFTAFGVHGLVAITSVTAQNTQTVTAIHDIPPEVVSEQIRVVAEDIGVDAAKTGMLSNAEIIKAVAKTVKNYDFPLVVDPVMIAKSGAPLLREDAVDALIKYILPLATLVTPNRFEAEKLTGMEIRNVNDAKLAAKKIAEETGAKAVIVKGGHLEGKEAIDVLYHNGAYKLYRAPKVDGCTHGTGCSFSAAITANLAKGLSLEDAVSVAKEFITLGISTGHKIGHGHCPVNQSAWIEIPAEKWRIYEELTRAVREFERINPIKLIPEVGTNFVYALPFPYARTKEDVAGVKGRIVRVGNEVRAVGSVEFGASDHLARAILTFMRFYPKYRSAINVRYSEEIVELAKEQGFTVSFYDRREEPIEVKEKEGATIPWGIEVAVKRINKRPDVIYHLGDIGKEPMILIFGRNPREVLDKLRLLEGHHHHHH", "soluble on expression in E. coli": "soluble"},
      {"sequence": "MGSDKIHHHHHHMVQAWYMDESTADPRKPHRAQPDRPVSLEQLRTLGVLYWKLDADKYENDPELEKIRKMRNYSWMDIITICKDTLPNYEEKIKMFFEEHLHLDEEIRYILEGSGYFDVRDKEDKWIRISMEKGDMITLPAGIYHRFTLDEKNYVKAMRLFVGEPVWTPYNRPADHFDARVQYMSFLEGTA", "soluble on expression in E. coli": "soluble"},
      {"sequence": "MGHHHHHHSHMCSALVVAAPHSGSGKTTVTAAIARYHRVQGRKVTVFKVGPDFIDPMILRQASGELVYQLDLWLVGEQGCRALLHRAAMDSDLILIEGVMGLFDGTPSSADLAKYFNIPVLGVIDAKAMAQTFAAVTFGLAKFCEDLPFSGVIANRVNTERHAELLSVSLPKAFRFYGRIPKDDTITLPERHLGLVQAQELSDIDVQLDKAASHIANTG", "soluble on expression in E. coli": "not soluble"},
      {"sequence": "MELPVVDLSSYLDFSGDELGSDLLESCRQVSRILKETGALIVKDPRCCAQDNDRFIDMMENYFEKPDDFKRLQQRPNLHYQVGATPEGVEVPRSLVDEEMQEKFNTMPNEYKPHIPKGPDHKWRYMWRVGPRPSNTRFKELNSEPVVPEGFPGWEEVMDSWGYKMISAVEVVAEMAAIGFGLPKDAFTSLMKQGPHLLAPTGSDLNCYNEEGTIFAGYHYDLNFLTIHGRSRFPGLYIWLRNGEKVAVKVPVGCLLIQAGKQIEWLTAGECIAGMHEVVVTSKTKDAITLAKEQNRSLWRVSSTLFAHIASDAELKPLGHFAESSLASKYPAIPAGEYVEQELSVINLKGNKGSS", "soluble on expression in E. coli": "soluble"},
      {"sequence": "MAHHHHHHMDVKLGTIISRFTFTLPSLYDDGRDDYDATVSSPDDAATEESCGVAFTSGTHCDEARKTPKTTQAGSRSHVARFGAPASPTEKLDITGAYAFVSHGGAASSASLAAPSSPPPLLGRAAARGDRNNSTVAAPQHDVGDRGGGAVRYGTSLHLPDLVQLAAHAWNVELHCGSTGAASHCVLRLPPFVLGSTLYRGPVVYVLASGVVRMATHGSVAATELLARRVRDALHEACKPLAVRRAAREELLLMRAVLEDSLSDMLEDEGGEEGPARHLCTAVLKAEARLPSSGVSLSTALAADTAMSSQHGRRAAFGSSAAAARIGPMARDKAGHGLPTLVSTPSVLSARGCKIDFLQAVATPRWDEIVGLRASLFAPASAAPGSENSGGGGVAKADRDAEGAPRVSVRRASVNVRGDAPMEWWRWYLGVQADDHGVGGGDGSGAARRGGGAPSAAAANSEEPFPGDCSGVPLLGSWLSGDASEGGNADARSSNKTTGFWTCAGYADASPENAASFVHFLQRRRALLAHHVASFKLRRQATQNSLQILLDWRTATPPTPPAPPAPLSAAAAPLMGRPPLARALVGHPMAVAQPLPDSGTPSVPAAPTRTNISGNTWVTEASAANFFMESTFIAESAAPFELESVRMPTDRMSSADPALPVSMALGDRNVANPCGSTALAPDSGCGSMSALLEPSVGHSVLRYDSSSSKDDRTAAKAAPEKRMRGVAAAQASAANRDEAASAAMEHVTCLIHRTGRVQMTAASELALRQMCAMLLIPFLVATAEVEL", "soluble on expression in E. coli": "not soluble"},
      {"sequence": "MEQSVANLVDMRDVSFTRGNRCIFDNISLTVPRGKITAIMGPSGIGKTTLLRLIGGQIAPDHGEILFDGENIPAMSRSRLYTVRKRMSMLFQSGALFTDMNVFDNVAYPLREHTQLPAPLLHSTVMMKLEAVGLRGAAKLMPSELSGGMARRAALARAIALEPDLIMFDEPFVGQDPITMGVLVKLISELNSALGVTCVVVSHDVPEVLSIADHAWILADKKIVAHGSAQALQANPDPRVRQFLDGIADGPVPFRYPAGDYHADLLPGS", "soluble on expression in E. coli": "not soluble"},
      {"sequence": "MTSNKQLINERDHAESALADMYFAATGDEPEWSNWFGFSDAVDAVVDRIADLEAKQPSPVVPEGLVKAVRFYEQVKRENPPVETEAWKDAIDWVLKESCQAVNIDTNGD", "soluble on expression in E. coli": "soluble"},
      {"sequence": "MGFGIGDLFWIFLLLTSLQPLWQKRQIEYRRLRALQEFQQERKSRVILLIHRQESISFLGIPISRYITIEDSEQILRAIRLTPPDVPIDLILHTPGGLVLATEQIARALIRHQAKVTVFVPHYAMSGGTMLALASDEIIMDANAVLGPVDPQLGNYPAASILKVIEDKPISEIDDQTLIMADLSRKAIGQVQRFVRTLLKDSIPKQKVLPENIESIIEALTTGRVTHDYPITIEEATEMGLPVTVGLPHSIYDLMDLYPQAQGGRPSVQYIPMPYNDPRPIL", "soluble on expression in E. coli": "not soluble"},
      {"sequence": "MKKVYFATKADVERLHSFFGQANKKDDKINELYAQFMILEEAEEIRAVIGYEQSGEDVLIRSCLFTPHVDKQTFLYFFEMFLQYMKEKSVQQLYLLTNHPQSVPIFQFFDFFTIEKDEVPEGIQQLEHFCKNIKEQNAIILNCQLFTKLSTD", "soluble on expression in E. coli": "not soluble"},
      {"sequence": "GSHNLACPTPKEDGLAQQQTQLNLRSLLVNPEGPTLMRLNSVQSSERPLFLVHPIEGSTTVFHSLASRLSIPTYGLQCTRAAPLDSIHSLAAYYIDCIRQVQPEGPYRVAGYSYGACVAFEMCSQLQAQQSPAPTHNSLFLFDGSPTYVLAYTQSYRAKLTPGCEAEAETEAICFFVQQFTDMEHNRVLEALLPLKGLEERVAAAVDLIIKSHQGLDRQELSFAARSFYYKLRAAEQYTPKAKYHGNVMLLRAKTGGAYGEDLGADYNLSQVCDGKVSVHVIEGDHRTLLEGSGLESIISIIHSSLAEPRVSVREG", "soluble on expression in E. coli": "soluble"},
      {"sequence": "MGRVLDRIEVVAEEIRGQAVQSEADCRLTDAAAGLLRDSGAIRLLQPRLYGGYEVHPREFAETVMGVAALDGASGWVTGIVGVHPWELAFADPQVQEEIWGEDNDTWMASPYAPMGVATPVDGGYVLKGRWSFSSGTDHCQWAFLGAMVGDGEGGIATPSSLHVILPRTDYQIVEDTWDVIGLRGTGSKDLIVDGAFVPGYRTLNAAKVMDGRAQKEAGRPEPLFNMPYSCMFPLGITAAVIGITEGALACHIAVQKDRVAITGQKIKEDPYVLSAIGESAAEINASRVSLIETADRFYDKVDAGKEITFEERAIGRRTQIAAAWRAVRAADEIFARAGGGALHYKTPMQRFWRDAHAGLAHAVHVPGPTNHASALTQLGGEPQGMMRAMI", "soluble on expression in E. coli": "soluble"}
    ]}
  ]
}
